# Measured values as given in patent publication US20200308270A1 (Zymeworks, published 2020).
# Positions count from the first letter of the chain named.
# T1: human recombinant FcgammaR receptor CD32aR (human, UniProt P12318 34-217, limits assumed)
# T1 sequence (looked up): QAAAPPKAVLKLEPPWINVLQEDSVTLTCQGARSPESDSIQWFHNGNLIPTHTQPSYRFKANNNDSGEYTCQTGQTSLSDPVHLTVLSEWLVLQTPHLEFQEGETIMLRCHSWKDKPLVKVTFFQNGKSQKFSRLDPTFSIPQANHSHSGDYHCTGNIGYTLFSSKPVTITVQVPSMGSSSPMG
# T2: recombinant human sFas receptor (human, UniProt P25445 17-173, limits assumed)
# T2 construct: Bought reagent
# T2 sequence (looked up): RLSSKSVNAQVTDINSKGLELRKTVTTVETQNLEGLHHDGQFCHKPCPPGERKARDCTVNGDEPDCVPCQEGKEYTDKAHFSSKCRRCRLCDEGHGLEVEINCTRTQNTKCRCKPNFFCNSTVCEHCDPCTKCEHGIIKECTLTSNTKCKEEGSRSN
# B1: H3 designed Vlambda-Ckappa chimeric Mab, design 37 (E83A_D85T) (antibody, human IgG1, kappa, name in Kabat numbering)
# heavy: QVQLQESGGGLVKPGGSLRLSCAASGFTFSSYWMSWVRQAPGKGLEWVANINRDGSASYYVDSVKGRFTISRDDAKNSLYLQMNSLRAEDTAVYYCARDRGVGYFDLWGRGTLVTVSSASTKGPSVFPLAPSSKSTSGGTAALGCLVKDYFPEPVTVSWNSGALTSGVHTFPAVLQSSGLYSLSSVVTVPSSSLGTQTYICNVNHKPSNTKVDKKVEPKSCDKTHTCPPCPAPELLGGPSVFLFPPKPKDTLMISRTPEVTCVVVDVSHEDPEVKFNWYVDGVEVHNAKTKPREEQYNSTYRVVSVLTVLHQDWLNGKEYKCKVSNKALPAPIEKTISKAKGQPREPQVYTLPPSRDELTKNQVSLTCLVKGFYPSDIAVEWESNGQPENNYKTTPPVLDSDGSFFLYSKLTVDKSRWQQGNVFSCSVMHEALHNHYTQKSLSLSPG
# light: QSALTQPASVSGSPGQSITISCTGTSSDVGGYNFVSWYQQHPGKAPKLMIYDVSDRPSGVSDRFSGSKSGNTASLIISGLQADDAATYYCSSYGSSSTHVIFGGGTKVTVLRTVAAPSVFIFPPSDEQLKSGTASVVCLLNNFYPREAKVQWKVDNALQSGNSQESVTEQDSKDSTYSLSSTLTLSKADYEKHKVYACEVTHQGLSSPVTKSFNRGEC
# notes: IgG1 Mab format
# B2: H3 Vlambda-Ckappa chimeric Mab (antibody, human IgG1, kappa)
# heavy: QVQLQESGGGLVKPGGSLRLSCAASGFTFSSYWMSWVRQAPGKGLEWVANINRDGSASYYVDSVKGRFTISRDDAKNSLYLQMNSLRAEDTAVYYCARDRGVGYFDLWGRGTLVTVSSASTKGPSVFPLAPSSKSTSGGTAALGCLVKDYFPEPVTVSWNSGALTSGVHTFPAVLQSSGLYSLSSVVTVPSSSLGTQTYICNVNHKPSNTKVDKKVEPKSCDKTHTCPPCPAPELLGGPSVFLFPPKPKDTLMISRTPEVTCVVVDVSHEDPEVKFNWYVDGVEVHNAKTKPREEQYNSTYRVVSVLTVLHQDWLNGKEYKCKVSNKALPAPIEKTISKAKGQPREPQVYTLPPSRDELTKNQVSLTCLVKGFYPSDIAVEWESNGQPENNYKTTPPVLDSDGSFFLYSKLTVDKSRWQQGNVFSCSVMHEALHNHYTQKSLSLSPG
# light: B1 light with A85E, T87D
# notes: IgG1 Mab format; chimeric light chain without stabilizing substitutions; also called chimera
# B3: H3 designed Vlambda-Ckappa chimeric Mab, design 29 (E83V_D85T_T105E_V106I) (antibody, human IgG1, kappa, name in Kabat numbering)
# heavy: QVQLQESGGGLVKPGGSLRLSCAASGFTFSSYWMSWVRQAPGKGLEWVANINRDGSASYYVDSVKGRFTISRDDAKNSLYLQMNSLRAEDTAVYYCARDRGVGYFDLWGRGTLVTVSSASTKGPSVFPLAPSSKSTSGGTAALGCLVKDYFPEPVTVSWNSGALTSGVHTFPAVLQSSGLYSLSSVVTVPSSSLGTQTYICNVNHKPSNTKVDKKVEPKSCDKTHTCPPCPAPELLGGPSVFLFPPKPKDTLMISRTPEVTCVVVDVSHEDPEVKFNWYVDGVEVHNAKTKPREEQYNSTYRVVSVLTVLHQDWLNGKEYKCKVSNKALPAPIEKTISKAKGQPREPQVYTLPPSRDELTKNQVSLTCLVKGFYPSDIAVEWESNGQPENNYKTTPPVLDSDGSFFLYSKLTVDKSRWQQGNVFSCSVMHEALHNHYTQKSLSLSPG
# light: B1 light with A85V, T109E, V110I
# notes: IgG1 Mab format
# B4: H3 designed Vlambda-Ckappa chimeric Mab, design 39 (E83A_D85T_T105E_V106I) (antibody, human IgG1, kappa, name in Kabat numbering)
# heavy: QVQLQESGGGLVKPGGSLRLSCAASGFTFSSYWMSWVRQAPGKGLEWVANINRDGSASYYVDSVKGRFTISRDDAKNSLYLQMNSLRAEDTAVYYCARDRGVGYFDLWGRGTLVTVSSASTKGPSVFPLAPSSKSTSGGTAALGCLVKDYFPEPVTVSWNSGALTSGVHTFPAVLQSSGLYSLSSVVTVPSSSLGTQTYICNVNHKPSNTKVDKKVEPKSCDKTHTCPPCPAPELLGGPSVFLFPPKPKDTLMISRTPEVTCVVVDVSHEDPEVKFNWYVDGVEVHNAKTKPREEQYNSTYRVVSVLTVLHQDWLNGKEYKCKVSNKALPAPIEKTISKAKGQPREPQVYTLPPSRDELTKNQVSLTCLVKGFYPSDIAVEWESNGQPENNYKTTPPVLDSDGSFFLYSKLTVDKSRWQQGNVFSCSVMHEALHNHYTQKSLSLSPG
# light: B1 light with T109E, V110I
# notes: IgG1 Mab format
# B5: EP6b_B01 Vlambda-Ckappa chimeric Fab (Fab, V domains shown)
# VH: QLQLQESGPGLVKPSETLSLTCTVSGASISANSYYGVWVRQSPGKGLEWVGSIAYRGNSNSGSTYYNPSLKSRATVSVDSSKNQVSLRLTSVTAADTALYYCARRQLLDDGTGYQWAAFDVWGQGTMVTVSS
# VL: QSVLTQPPSVSEAPRQTVTISCSGNSSNIGRYPVNWYQQLPGKAPKLLIYSDNLRFSGVPDRFSGSKSGTTASLAIRDLLSEDEADYYCSTWDDTLEGWVFGGGTKVTVLR
# notes: Parent chimeric Fab without stabilizing substitutions; also called chimera; VL-CK chimeric Fab
# B6: EP6b_B01 wild-type lambda Fab (Fab, V domains shown)
# VH: B5 VH
# VL: B5 VL with R111G
# notes: Truncated heavy chain (VH-CH1-upper IgG1 hinge, no His tag) and wild-type lambda light chain; also called WT
# B7: EP6b_B01 designed Vlambda-Ckappa chimeric Fab, design 29 (E83V_D85T_T105E_V106I) (Fab, name in Kabat numbering, V domains shown)
# VH: B5 VH
# VL: B5 VL with E84V, D86T, T108E, V109I
# B8: EP6b_B01 designed Vlambda-Ckappa chimeric Fab, design 18 (E83F_D85T_T105E) (Fab, name in Kabat numbering, V domains shown)
# VH: B5 VH
# VL: B5 VL with E84F, D86T, T108E
# B9: EP6b_B01 designed Vlambda-Ckappa chimeric Fab, design 34 (E83I_D85T_T105E_V106I) (Fab, name in Kabat numbering, V domains shown)
# VH: B5 VH
# VL: B5 VL with E84I, D86T, T108E, V109I
# B10: EP6b_B01 designed Vlambda-Ckappa chimeric Fab, design 37 (E83A_D85T) (Fab, name in Kabat numbering, V domains shown)
# VH: B5 VH
# VL: B5 VL with E84A, D86T
# B11: EP6b_B01 designed Vlambda-Ckappa chimeric Fab, design 32 (E83I_D85T) (Fab, name in Kabat numbering, V domains shown)
# VH: B5 VH
# VL: B5 VL with E84I, D86T
# B12: EP6b_B01 designed Vlambda-Ckappa chimeric Fab, design 26 (E83V_D85T) (Fab, name in Kabat numbering, V domains shown)
# VH: B5 VH
# VL: B5 VL with E84V, D86T
# Columns and labels:
# [1] = target: T1, human recombinant FcgammaR receptor …; experiment: SPR (ProteOn), Mab captured via anti-human Fc, FcgammaR analyte
# Description: (§1) Goat polyclonal anti-human Fc antibody was purchased from Jackson Immuno Research Laboratories Inc. (West Grove, Pa.). […] Human recombinant FcγR receptors: CD16aV, CD32bF, CD32aR, and CD32aH were expressed as constructs containing a His10-tag at the C-terminus and purified by Ni-affinity chromatography followed by His-tag removal and SEC purification.
# (§2) FcγR affinity determination was carried out as follows. The screening of Mabs for binding to various FcγR receptors occurred in two steps: an indirect capture of Mab samples onto the anti-human Fc-specific polyclonal antibody surface, followed by the injection of five concentrations of each of FcγR receptors. The anti-human Fc surface was prepared on a GLC sensorchip by amine coupling. GLC sensorchip surface was activated by a 1:10 dilution of the standard BioRad sNHS/EDC solutions injected for 140s at 100 μL/min in the analyte (horizontal) direction. Immediately after the activation, 25 microg/mL solution of anti-human Fc in 10 mM NaOAc pH 4.5 was injected in the analyte direction at a flow rate of 25 microL/min for 240s until approximately 4500 or 2500 resonance units (RUs) were immobilized. Remaining active groups were quenched by a 300s injection of 1M ethanolamine at 30 μL/min also in the analyte direction. Mabs for analysis were indirectly captured onto the anti-human Fc surface by injecting 10 microg/ml solutions in the ligand (vertical) direction at a flow rate of 25 microL/min for 240s. Each of the FcγR receptors was subsequently injected in the analyte (horizontal) direction. Firstly, two buffer injections for 30s at 100 microL/min in the analyte (horizontal) direction were used to stabilize the baseline. Five concentrations of a three-fold dilution series of each of the four FcγR receptors starting at 10 μM with a blank buffer control were then simultaneously injected at 50 microL/min for 120 s with a 3 minute dissociation phase, resulting in a set of binding sensorgrams with a buffer reference. […] Sensorgrams were aligned and double-referenced using the buffer blank injection and interspots, and the resulting sensorgrams were analyzed using ProteOn Manager software v3.1.
# [2] = target: human recombinant FcgammaR receptor CD16aV (human, UniProt P08637 17-208, limits assumed); experiment: as above
# Sequence of human recombinant FcgammaR receptor CD16aV (P08637 17-208 F176V limits assumed): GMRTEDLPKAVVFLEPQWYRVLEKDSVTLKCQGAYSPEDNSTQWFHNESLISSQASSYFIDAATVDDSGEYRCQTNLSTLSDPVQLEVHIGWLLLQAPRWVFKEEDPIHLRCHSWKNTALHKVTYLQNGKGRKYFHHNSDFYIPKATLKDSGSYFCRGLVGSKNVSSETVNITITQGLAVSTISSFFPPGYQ
# Description: as §1, §2
# [3] = target: T3, human recombinant FcRn (human, UniProt P55899 24-297; P61769 21-119, limits assumed); experiment: SPR (ProteOn), FcRn immobilized, Mab analyte, pH 5.8
# T3 construct: also called neonatal receptor
# Description: FcRn affinity determination was carried out as follows. FcRn surface was generated using a GLC sensorchip activated by a 1:10 dilution of the standard BioRad sNHS/EDC solutions injected for 140s at 100 μL/min in the ligand (vertical) direction. Immediately after the activation, 10 microg/mL solution of FcRn in 10 mM NaOAc pH 4.5 was injected in the ligand (vertical) direction at a flow rate of 25 microL/min for 120s until approximately 2000 resonance units (RUs) were immobilized. Remaining active groups were quenched by a 140s injection of 1M ethanolamine at 30 μL/min also in the ligand direction. The running buffer used on the FcRn surface was PBST pH 5.8. The screening of the Mabs for binding to FcRn was performed by injection of purified Mabs in the analyte (horizontal) direction. Firstly, two buffer injections for 30s at 100 microL/min in the analyte (horizontal) direction were used to stabilize the baseline. Five concentrations of a three-fold dilution series of each Mab starting at 100 nM with a blank buffer control were simultaneously injected at 50 microL/min for 120 s with a 10 minute dissociation phase, resulting in a set of binding sensorgrams with a buffer reference. […] Sensorgrams were aligned and double-referenced using the buffer blank injection and interspots, and the resulting sensorgrams were analyzed using ProteOn Manager software v3.1. The double-referenced sensorgrams were fit to the Langmuir binding model.
# [4] = target: T4, recombinant human HER3 (human, UniProt P21860 20-643); experiment: SPR (ProteOn), Mab captured via anti-human Fc, HER3 analyte
# T4 construct: Bought reagent
# Description: HER3 affinity determination in Mabs was carried out as follows. The screening of Mabs for binding to HER3 antigen occurred in two steps: an indirect capture of Mabs onto the anti-human Fc-specific polyclonal antibody surface, followed by the injection of five concentrations of HER3. The anti-human Fc surface was prepared on a GLC sensorchip by amine coupling. GLC sensorchip surface was activated by a 1:10 dilution of the standard BioRad sNHS/EDC solutions injected for 140s at 100 pt/min in the analyte (horizontal) direction. Immediately after the activation, 25 microg/mL solution of anti-human Fc in 10 mM NaOAc pH 4.5 was injected in the ligand (vertical) direction at a flow rate of 25 microL/min for 240s until approximately 3000 resonance units (RUs) were immobilized. Remaining active groups were quenched by a 140s injection of 1M ethanolamine at 100 μL/min also in the analyte direction. Mabs for analysis were indirectly captured onto the anti-Fc surface by injecting 20 microg/mL solutions in the ligand (vertical) direction at a flow rate of 25 microL/min for 240s. HER3 was subsequently injected in the analyte (horizontal) direction. Firstly, two buffer injections for 30s at 100 microL/min in the analyte (horizontal) direction were used to stabilize the baseline. […] Sensorgrams were aligned and double-referenced using the buffer blank injection and interspots, and the resulting sensorgrams were analyzed using ProteOn Manager software v3.1. The double-referenced sensorgrams were fit to the Langmuir binding model.
# [5] = target: T4, recombinant human HER3; experiment: SPR
# [6] = target: T2, recombinant human sFas receptor; experiment: SPR (Biacore T200), Fas immobilized, Fab analyte
# Description: Fas affinity determination was carried out as follows. Fas was diluted in 10 mM acetate buffer pH 5.5 and directly immobilized via amine coupling onto a CMS Series S sensor chip. […] The reference flow cell was left empty (ethanolamine blocked) to use as a blank control. Fabs were injected over both the ethanolamine-blocked reference surface and the Fas surface for kinetic analysis using single cycle kinetics. […] Fas surfaces were regenerated using 2 cycles of 10 mM glycine pH 1.5 for 120 s at 30 pt/min to prepare the surfaces for the next injection cycle. At least two mock-buffer injections were performed for each analyte injection to be used for referencing. The resulting single cycle kinetics sensorgrams were analyzed using Biacore T200 BiaEvaluation software version 3.0 and fit to the 1:1 binding model.
Kd [1] [nM],Kd [2] [nM],Kd [3] [nM],Kd [4] [nM],Kd [6] [nM],also measured,Binder
3400,1300,80.2,67,–,–,B1
4100,1200,74.6,63,–,fold difference of KD against the wild-type lambda Mab control [5]: ≤ 1.5 fold,B2
4900,1100,86.1,64,–,–,B3
3100,1400,96.7,61,–,–,B4
–,–,–,–,0.0512,–,B5
–,–,–,–,0.0546,–,B6
–,–,–,–,0.0479,–,B7
–,–,–,–,0.0449,–,B8
–,–,–,–,0.0484,–,B9
–,–,–,–,0.0492,–,B10
–,–,–,–,0.0471,–,B11
–,–,–,–,0.0486,–,B12
